Laboratory results: US20080044436A1, “Method for Screening and Compositions for Treating Cancers” (priority 2004, published 2008)

B1: TReP-132: Transcriptional Regulating Protein of 132 kDa, polypeptide comprising SEQ ID NO: 2; here expressed in cells from vectors (protein)
chain: MGDQQLYKTNHVAHGSENLFYQQPPLGVHSGLNHNYGNAVTGGGMDAPQASPISPHFPQDTRDGLGLPVGSKNLGQMDTSRQGGWGSHAGPGNHVQLRGNLANSNMMWGAPAQAEPTDGYQYTYSQASEIRTQKLTSGVLHKLDSFTQVFANQNLRIQVNNMAQVLHTQSAVMDGAPDSALRQLLSQKPMEPPAPAIPSRYQQVPQQPHPGFTGGLSKPALQVGQHPTQGHLYYDYQQPLAQVPVQGGQPLQAPQMLSQHMQQMQQHQYYPPQQQQQAGQQRISMQEIQTQPQQIRPSQPQPPPQQQQPQQLQLQQRQGSMQIPQYYQPQPMMQHLQEQQQQQMHLQPPSYHRDPHQYTPEQAHTVQLIPLGSMSQYYYQEPQQPYSHPLYQQSHLSQHQQREDSQLKTYSSDRQAQAMLSSHGDLGPPDTGMGDPASSDLTRVSSTLPHRPLLSPSGIHLNNMGPQHQQLSPSAMWPQMHLPDGRAQPGSPESSGQPKGAFGEQFDAKNKLTCSICLKEFKNLPALNGHMRSHGGMRASPNLKQEEGEKVLPPQPQPPLPPPPPPPPPPQLPPEAESLTPMVMPVSVPVKLLPPKPSSQGFTNSTVAAPSARDKPASSMSDDEMPVLEIPRKHQPSVPKAEEPLKTVQEKKKFRHRPEPLFIPPPPSYNPNPAASYSGATLYQSQLRSPRVLGDHLLLDPTHELPPYTPPPMLSPVRQGSGLFSNVLISGHGPGAHPQLPLTPLTPTPRVLLCRSNSIDGSNVTVTPGPGEQTVDVEPRINIGLRFQAEIPELQDISALAQDTHKATLVWKPWPELENHDLQQRVENLLNLCCSSALPGGGTNSEFALHSLFEAKGDVMVALEMLLLRKPVRLKCHPLANYHYAGSDKWTSLERKLFNKALATYSKDFIFVQKMVKSKTVAQCVEYYYTWKKIMRLGRKHRTRLAEIIDDCVTSEEEEELEEEEEEDPEEDRKSTKEEESEVPKSPEPPPVPVLAPTEGPPLQALGQPSGSFICEMPNCGAVFSSRQALNGHARIHGGTNQVTKARGAIPSGKQKPGGTQSGYCSVKSSPSHSTTSGETDPTTIFPCKECGKVFFKIKSRNAHMKTHRQQEEQQRQKAQKAAFAAEMAATIERTTGPVGAPGLLPLDQLSLIKPIKDVDILDDDVVQQLGGVMEEAEVVDTDLLLDDQDSVLLQGDAEL

Legend:
TReP-132 mRNA = assay: Quantitative RT-PCR of TReP-132 mRNA in T47-D cells; type: cell-based, human; details: 30 nM progesterone, 48 hours of exposure
Description: Total RNA from T47-D cells treated or not with progesterone was reverse transcribed and TReP-132 transcript levels were measured by quantitative RT-PCR as described in Gizard et al. (2004) using primers specific for […] and [NT]). […] Transfection was carried out by using the GeneSilencer reagent (Gene Therapy Systems, San Diego, USA) as directed by the manufacturer. Transfection efficiency was verified by FACS analysis (Fluorescence-Activated Cell Sorting) (see below). […] Statistical analyses were carried out with the nonparametric Kruskal-Wallis test.

p27 promoter = assay: Luciferase reporter assay in HeLa cells, p27 promoter; type: cell-based, human; details: 0.3 μg TReP-132 expression vector, dose-dependent
Description: The pGL2 and pGL3 reporter constructs (100 ng) were cotransfected with the indicated amounts of expression vectors and 10 ng of the control plasmid pRL.Null. The amount of plasmid was then normalized with the empty vector pcDNA3. After 12 hours of transfection, the medium was changed and cells were incubated for an additional 10 and 34 hours, respectively. During this period, T47-D cells were cultured in the presence and absence of progesterone (30 nM). The cells were then harvested and cell lysates (20 μl) were assayed for luciferase activity (Dual Luciférase™ Reporter Assay System, Promega, Madison, Wis., USA) in a Berthold LUMAT LB9501 luminometer. The transfections were performed in triplicate and each experiment was repeated at least three times.
TReP-132 activation of the p21, p27 and p16 cyclin kinase inhibitor promoters was studied by transfection of HeLa and T47-D cells. HeLa cells were seeded in 24-well plates at an initial density of 15,000 cells per well and transfected the next day with ExGen 500 (MBI Fermentas, Flamborough, Ontario, Canada) at a ratio of 4 μl of ExGen 500 per 0.5 μg DNA. T47-D cells were seeded at a density of 100,000 cells per well and transfected the next day with FuGENE 6 reagent (Roche Molecular Biochemicals, Laval, Canada), at a ratio of 3 μl of FuGENE per 1 μg of DNA. […]

cyclin D1/CDK6 = assay: In vitro kinase assay of immunoprecipitated cyclin D1/CDK6 (pRb substrate); type: biochemical, human; details: TReP-132 induced for 48 hours in HTO-GFP/TReP-132 cells
From the text: FIG. 9A: Kinase activities of each immunoprecipitated cyclin or CDK were quantified using pRb as substrate to measure cyclin D1/CDK6 activity, or histone H1 to measure cyclin A/CDK2 activity. The levels of phosphorylation of histone H1 or pRb in induced HTO cells (HeLa Tet Off) are expressed in relation to the levels in non-induced HTO cells (corresponding to level 1.0).
Cells were washed twice with cold PBS (Phosphate Buffered Saline), then harvested either in cold RIPA buffer (1×PBS, 1% Nonidet P-40, 0.5% sodium deoxycholate, 0.1% SDS, phosphatase and protease inhibitors) for co-immunoprecipitation analysis, or in lysis buffer (50 mM Tris, pH 8.0, 0.1% IGEPAL (Sigma)) for kinase assays. […] The blots were then visualized with ECL reagent and quantified with SCANWISE and Perfect-IMAGE V-5.3 software (CLARA VISION, France).
The kinase activities on histone H1 or Rb protein in the immunoprecipitates were measured as follows: the immunoprecipitates were first washed once with 1 ml of assay buffer (50 mM Tris-HCl, pH 7.4, 10 mM MgCl2, 1 mM dithiothreitol (DTT)), then resuspended in 20 μl of assay buffer containing 1 mg/ml casein (Sigma) and 1 μg of histone H1 or Rb protein (769) (sc-4112) as substrate. […]
The reaction was stopped by addition of 15 μl of electrophoresis buffer (3×). […] Phosphorylated Rb and histones were quantified by densitometry.

p16^INK4 gene = assay: RNase protection assay of CDKI transcription in HeLa cells, p16; type: cell-based, human; details: HeLa Tet-off cells, doxycycline removed

Row | Molecule | TReP-132 mRNA levels, peak increase (TReP-132 mRNA) | p27 promoter induction (p27 promoter) | in vitro kinase activity of cyclin D1/CDK6 (cyclin D1/CDK6) | p16 gene transcription (p16^INK4 gene)
1 | CC(=O)[C@H]1CC[C@H]2[C@@H]3CCC4=CC(=O)CC[C@]4(C)[C@H]3CC[C@]12C [progesterone, reference compound] | 3 fold | – | – | –
2 | B1 | – | approximately 7 fold | reduced | induction
